Results as given in article PMC3025356, “Mechanism of the Ca^2+-Dependent Interaction between S100A4 and Tail Fragments of Nonmuscle Myosin Heavy Chain IIA” (Journal of Molecular Biology, 2011).

Assays:
[1] = biological target: T1, S100A4 (Homo sapiens, UniProt P26447); assay: Summary of rate and equilibrium constants defined according to Scheme 1; assay type: binding
T1 construct: We used full-length S100A4 for this analysis; made in house; host or cells: Escherichia coli BL21(DE3)
Description: The interaction of myosin tail fragments (M) with S100A4 depends on [Ca^2+], with little detectable binding in the absence of Ca^2+.[2,7,17] Scheme 1 presents a minimal pathway describing the thermodynamics and kinetics of this interaction, where arrow lengths indicate the approximate position of the equilibria involved.
[formula] Scheme 1 Ca2+ and myosin peptide (M) binding to S100A4.
The binding of Ca^2+ and a target peptide to S100A4, as shown in Scheme 1, is thermodynamically coupled so that K1K2 = K0K3. For simplicity, we assume a 1:1 stoichiometry and independent binding sites, which are unlikely to be true at least for the longer fragments. However, the trends in binding remain valid for more complex cases. Binding of target peptides to S100A4 in the absence of Ca^2+ is weak (K0 > 100 μM), while binding of target peptides to S100A4 in the presence of Ca^2+ (K2) is around a micromolar or less for longer fragments. Knowing that Ca^2+ binding to S100A4 has K1 = 2–5 μM (from the ITC data above and the literature[14,17,18]) requires that Ca^2+ binding to the M–S100A4 complex be very tight (K3 < 0.15 μM and even lower for M200). The latter cannot be easily determined directly as it requires protein concentrations greater than K0 (i.e., >>100 μM) so that the proteins remain bound together throughout the titration with Ca^2+. However, K3 is readily determined by calculation because values or limits for K0, K1, and K2 are available (Table 2). This aspect is addressed further below for M200, which has the complication of forming filaments at the ionic strength used.

[2] = system: M200 filaments; assay: Stopped-flow turbidity, dissociation of M200 filaments on NaCl jump or dilution; assay type: biochemical, human
Description: Fig. 9 Dissociation of M200 filaments by S100A4. (a) Initially, M200 was added (i) from a concentrated stock in 0.5 M NaCl to give a final concentration of 5 μM M200 (with respect to the polypeptide chain) in 100 mM NaCl, 10 mM Hepes, and 0.1 mM Ca^2+ at pH 7.5 and 20 °C. A biphasic rise in turbidity was recorded for 200 s (continuous line). Then 10 μM S100A4 (with respect to monomer concentration) was added (ii), followed by 0.2 mM EGTA (iii) and 1 mM Ca^2+ (iv). […] (b) M200 was diluted (i) into 100 mM NaCl to form filaments as in (a), then 5 μM S100A4 was added (ii), causing a 54% drop in turbidity. A further 5 μM S100A4 (iii) caused turbidity to fall to almost zero. (c) Stopped-flow records monitoring the dissociation of 5 μM M200 filaments on jumping [NaCl] from 100 mM to 120 mM NaCl. Other components of the buffer were 20 mM Hepes, 1 mM Mg^2+, and 100 μM Ca^2+ at pH 7.5 and 20 °C. […] In the presence of 20 μM S100A4 (lower trace), the turbidity decreased by 87% with a rate constant of 0.2 s^− 1.
It is of interest to know whether S100A4 drives depolymerisation solely by binding to free M monomer and allowing the polymer equilibrium to readjust (i.e., via k− 4 and k5), or whether S100A4 also binds to the filament bundle and actively depolymerises an M200 unit (via k6 and k− 7). […] In an attempt to address this question, the dissociation rate of the M200 filament was followed on jumping the NaCl concentration from 100 mM to 120 mM in the absence and in the presence of S100A4 (Fig. 9c). Under these conditions in the absence of S100A4, turbidity dropped to about 50% of its initial value with a profile fitted to a double exponential (k1obs = 0.33 s^− 1 with 12% amplitude and k2obs = 0.037 s^− 1 with 43% amplitude, relative to the total amplitude expected for a full dissociation). Therefore, at the end point of this reaction, the filament concentration decreased by about 2-fold (turbidity is proportional to concentration over this range; Fig. S5b). There should also be a corresponding rise in M200 monomer concentration, but this may be less than accounted for by the loss of filaments if the drop in turbidity was also associated with a rise in small M200 oligomers with a lower specific turbidity. […]

T1 sequence (P26447 whole entry): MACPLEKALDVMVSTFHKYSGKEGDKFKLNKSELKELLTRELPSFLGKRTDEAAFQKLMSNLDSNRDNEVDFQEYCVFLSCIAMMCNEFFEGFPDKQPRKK

B1: M200: His-tagged human NM-MHC IIA residues Q1761-E1960, V1913I substitution (protein, UniProt P35579 1761-1960, looked up, variant V1913I)
chain: QINTDLNLERSHAQKNENARQQLERQNKELKVKLQEMEGTVKSKYKASITALEAKIAQLEEQLDNETKERQAACKQVRRTEKKLKDVLLQVDDERRNAEQYKDQADKASTRLKQLKRQLEEAEEEAQRANASRRKLQRELEDATETADAMNREISSLKNKLRRGDLPFVVPRRMARKGAGDGSDEEVDGKADGAEAKPAE
modifications: His tag
notes: His-tagged human NM-MHC IIA residues Q1761-E1960, V1913I substitution
k3 ([1]; Ca^2+ association to peptide–S100A4): > 2000 μM^− 1 s^− 1
Kd ([1]; Ca^2+ binding to peptide–S100A4, limit from K3 = K1K2/K0, read-out: K3): < 150 pM
k− 3 ([1]; Ca^2+ dissociation from peptide–S100A4–Ca^2+): 0.3 s^− 1
k− 2 ([1]; peptide dissociation from S100A4–Ca^2+): < 0.3 s^− 1
turbidity change on dilution relative to that with S100A4 ([2]; 2-fold dilution at 100 mM NaCl, no S100A4): 10%
fast rate constant, no S100A4 ([2]; NaCl jump 100 to 120 mM): 0.33 s^− 1
slow rate constant, no S100A4 ([2]; NaCl jump 100 to 120 mM): 0.037 s^− 1
turbidity of initial value after NaCl jump ([2]; NaCl jump, no S100A4): about 50%
